Laboratory results published in patent publication US20050064593A1 (WALTER AND ELIZA HALL INSTITUTE OF MEDICAL RESEARCH, published 2005).
Residue numbers refer to the chain shown, from its start. Names and notes keep the numbering of the source. Values belong to the binder of their own block, whether it stands above or below them.

Columns and labels:
[1] = molecular target: T1, mouse Mcl-1 lacking its hydrophobic C-terminus (yeast 2-hybrid bait in pGBT-9) (mouse, UniProt P97287 1-307); assay: yeast 2-hybrid screen
T1 construct: not shown: GAL4 domain of pGBT-9
T1 sequence (P97287 1-307): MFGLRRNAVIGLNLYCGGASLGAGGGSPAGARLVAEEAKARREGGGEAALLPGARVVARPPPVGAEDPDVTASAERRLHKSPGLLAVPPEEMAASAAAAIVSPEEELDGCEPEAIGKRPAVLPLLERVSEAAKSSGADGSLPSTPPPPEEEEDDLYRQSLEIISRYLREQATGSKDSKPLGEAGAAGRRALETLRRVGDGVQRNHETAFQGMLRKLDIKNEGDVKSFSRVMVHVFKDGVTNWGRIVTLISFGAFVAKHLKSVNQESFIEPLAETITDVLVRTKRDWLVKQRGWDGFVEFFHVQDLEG

[2] = molecular target: mouse dynein light chain 2 (DLC2) (mouse, UniProt Q9D0M5 1-89); assay: yeast 2-hybrid
mouse dynein light chain 2 (DLC2), sequence (Q9D0M5 whole entry): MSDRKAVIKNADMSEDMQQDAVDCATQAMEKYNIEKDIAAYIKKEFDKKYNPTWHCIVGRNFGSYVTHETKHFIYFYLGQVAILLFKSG

binding result [1]: binds
B1: Bmf (Bcl-2 modifying factor), mouse, wild-type, as used in the yeast 2-hybrid system (other)
chain: MEPPQCVEELEDDVFQSEDGEPGTQPGGLLSADLFAQSQLDCPLSRLQLFPLTHCCGPGLRPISQEDKATQTLSPASPSQGVMLPCGVTEEPQRLFYGNAGYRLPLPASFPAGSPLGEQPPEGQFLQHRAEVQIARKLQCIADQFHRLHTQQHQQNRDRAWWQVFLFLQNLALNRQENREGVGPW
notes: The clone first isolated with Mcl-1 as bait was a partial one lacking the 5' end; Mouse bmf was later subcloned as bait; also called the novel protein; not shown: GAL4 domain of the yeast 2-hybrid vector (pAD-GAL4-2.1 for the library clone, a pGBT-9 derivative for Bmf as bait); limi

binding result [2]: no binding
B2: Bmf A69P mutant as tested in yeast (other)
chain: B1 chain with A69P
notes: Yeast construct of the mutant is not described further; not shown: GAL4 domain of the yeast 2-hybrid vector

binding result [2]: no binding
B3: Bmf AAA mutant (D67K68A69:>AAA) as tested in yeast (other)
chain: B1 chain with D67A, K68A
notes: Yeast construct of the mutant is not described further; also called AAA mutation; not shown: GAL4 domain of the yeast 2-hybrid vector
